17 molecules from patent US20060193821, “Aptamers to the human IL-12 cytokine family and their use as autoimmune disease therapeutics” (published 2006) can be followed below.

Data set [1] concerns the target T1, IL-23 (mouse, p19/p40 heterodimer) (Mus musculus, UniProt Q9EQ14;P43432 SEQ:22-196,SEQ:23-335).
T1 sequence 1: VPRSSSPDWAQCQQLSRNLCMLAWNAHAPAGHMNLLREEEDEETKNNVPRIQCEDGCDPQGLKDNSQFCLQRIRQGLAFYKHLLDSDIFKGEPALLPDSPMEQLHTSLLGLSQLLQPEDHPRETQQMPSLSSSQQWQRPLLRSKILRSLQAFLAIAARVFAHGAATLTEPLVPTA
T1 sequence 2: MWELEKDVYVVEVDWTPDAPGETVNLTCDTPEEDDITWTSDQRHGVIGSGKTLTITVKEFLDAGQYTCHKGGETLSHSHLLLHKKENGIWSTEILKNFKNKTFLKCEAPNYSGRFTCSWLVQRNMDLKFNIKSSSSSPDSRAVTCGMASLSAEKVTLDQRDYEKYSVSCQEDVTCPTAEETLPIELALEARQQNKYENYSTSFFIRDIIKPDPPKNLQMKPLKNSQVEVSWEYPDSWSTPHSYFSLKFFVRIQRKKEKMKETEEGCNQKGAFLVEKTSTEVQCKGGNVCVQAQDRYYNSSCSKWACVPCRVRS
The experiment in a line: filter; 1X PBS, 0.1 mg/mL BSA, 30 min RT. As to conditions: tags: isolated in-house; label: 32P. Here is the method: (§1) rRfY mIL-23 Protein Binding Analysis: Dot blot binding assays were performed throughout the selections to monitor the protein binding affinity of the pools as previously described. When a significant level of binding of RNA in the presence of mIL-23 was observed, the pools were cloned using a TOPO TA cloning kit (Invitrogen, Carlsbad, Calif.) according to the manufacturer's instructions. For both mIL-23 selections, the Round 7 pool templates were cloned, and 16 individual clones from each selection were assayed using an 8-point mIL-23 titration. Seven of the 32 total clones screened had specific binding curves and are listed below in Table 16. […] Clones with high affinity to mIL-23 were subsequently screened for protein binding against mouse IL-12, human IL-23 and human IL-12 in the same manner.

In data set [2] the target is IL-12 (human, p35/p40 heterodimer) (Homo sapiens, UniProt P29459;P29460 SEQ:57-253,SEQ:23-328). The data set can be described thus: filter; 1X PBS, 0.1 mg/mL BSA, 30 min RT. As to conditions: label: 32P. Here is the method: as §1
The target of data set [3] is T2, IL-12 (mouse, p35/p40 heterodimer) (Mus musculus, UniProt P43431;P43432 SEQ:23-215,SEQ:23-335).
T2 sequence 1: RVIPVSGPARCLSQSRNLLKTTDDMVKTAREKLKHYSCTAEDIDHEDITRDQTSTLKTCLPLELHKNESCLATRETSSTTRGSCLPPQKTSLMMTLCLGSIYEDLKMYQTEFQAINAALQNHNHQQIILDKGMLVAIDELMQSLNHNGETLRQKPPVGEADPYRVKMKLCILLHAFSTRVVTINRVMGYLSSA
T2 sequence 2: T1 sequence 2
The data set can be described thus: filter; 1X PBS, 0.1 mg/mL BSA, 30 min RT. As to conditions: label: 32P. As for the experimental part:
as §1

Data set [4] deals with T3, IL-23 (human, p19/p40 heterodimer) (Homo sapiens, UniProt Q9NPF7;P29460 SEQ:20-189,SEQ:23-328). The experiment in a line: filter; 1X PBS, 0.1 mg/mL BSA, 30 min RT. As to conditions: tags: R&D Systems, carrier free; label: 32P. Here is the method: as §1
The target of data set [5] is T1, IL-23 (mouse, p19/p40 heterodimer). The data set can be described thus: cell_activity; TransAM STAT3. As to conditions: tags: isolated in-house. As for the experimental part:
In summary, the cell-based assay was conducted by isolating the peripheral blood mononuclear cells (PBMCs) from whole blood using a Histopaque gradient (Sigma, St. Louis, Mo.). The PBMCs were cultured for 3 to 5 days at 37° C./5% CO₂ in Peripheral Blood Medium (Sigma) which contains PHA, supplemented with IL-2 (100 units/mL) (R&D Systems, Minneapolis, Minn.), to generate PHA Blasts. To test IL-23 aptamers, the PHA Blasts were washed twice with 1×PBS, then serum starved for four hours in RPMI, 0.20% FBS. After serum starvation, approximately 2 million cells were aliquotted into appropriately labeled eppendorf tubes. hIL-23 at a final constant concentration of 3 ng/mL (R&D Systems, Minneapolis, Minn.) was combined with a dilution series of various IL-23 aptamers as described in Example 1, and the cytokine/aptamer mixture was added to the aliquotted cells in a final volume of 100 μl and incubated at 37° C. for 10-12 minutes. The incubation reaction was stopped by adding 1 mL of ice-cold PBS with 1.5 mM Na₃VO₄. Cell lysates were made using the lysis buffer provided by the TransAM™ STAT 3 assay following the manufacturer's instructions. FIG. 20 depicts a flow summary of the protocol used for the cell based assay.
The protocol used was identical to that previously described except mouse IL-23 was used to induce STAT 3 activation in PHA Blasts at a concentration of 30 ng/mL, instead of using human IL-23 at a concentration of 3 ng/mL.

Data set [6] deals with T3, IL-23 (human, p19/p40 heterodimer). The data set can be described thus: filter; 1X PBS, tRNA, ssDNA, BSA, 30 min RT. As to conditions: tags: R&D Systems, carrier free; label: 32P.

T3 sequence (Q9NPF7 20-189, chain 1 of 2): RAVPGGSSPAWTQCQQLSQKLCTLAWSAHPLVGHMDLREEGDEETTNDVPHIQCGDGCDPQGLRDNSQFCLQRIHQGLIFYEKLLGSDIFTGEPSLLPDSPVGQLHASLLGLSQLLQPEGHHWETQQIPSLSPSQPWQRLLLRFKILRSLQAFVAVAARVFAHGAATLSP
T3 sequence (P29460 23-328, chain 2 of 2): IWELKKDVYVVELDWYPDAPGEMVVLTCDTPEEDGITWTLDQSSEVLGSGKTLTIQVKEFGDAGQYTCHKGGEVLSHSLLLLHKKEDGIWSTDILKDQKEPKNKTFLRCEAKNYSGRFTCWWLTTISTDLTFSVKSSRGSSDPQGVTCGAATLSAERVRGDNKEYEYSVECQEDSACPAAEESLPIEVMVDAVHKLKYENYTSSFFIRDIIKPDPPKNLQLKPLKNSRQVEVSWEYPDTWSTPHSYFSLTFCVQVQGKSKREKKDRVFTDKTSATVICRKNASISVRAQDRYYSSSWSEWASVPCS
Chain of IL-12 (human, p35/p40 heterodimer) (P29459 23-219, chain 1 of 2): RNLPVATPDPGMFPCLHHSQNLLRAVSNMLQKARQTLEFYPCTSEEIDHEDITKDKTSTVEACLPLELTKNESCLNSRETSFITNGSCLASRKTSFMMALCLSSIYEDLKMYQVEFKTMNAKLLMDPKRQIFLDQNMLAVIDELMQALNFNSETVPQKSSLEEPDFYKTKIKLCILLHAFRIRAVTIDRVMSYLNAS
Chain of IL-12 (human, p35/p40 heterodimer) (P29460 23-328, chain 2 of 2): as the sequence (P29460 23-328, chain 2 of 2) above

B1: ARC1632 (ssRNA)
RNA: GGAGCGCACUCAGCCACCGGCUUAAUAUCCAAUAGGAACGUUCGCUCUGAGCAGGCGUUUCGACCUCUCUGCUAGC
modifications: 2'-F all C and U (rRfY)
As for B1, the equilibrium dissociation constant (Kd) (usually the constant that tells how readily two partners part at equilibrium) in data set [1] is 13 nM; in data set [2], 186 nM; in data set [3], 16 nM; in data set [4], 91 nM.

B2: ARC1632 (ssRNA)
RNA: B1 RNA
modifications: 2'-F C,U
For the molecule B2, in data set [5], the IC50 (in general, the concentration at which inhibition is half-maximal) is 18 nM. This counts as double-digit nanomolar.

B3: dRmY clone SEQ 96 (mixed)
RNA: GGGAGAGGAGAGAACGUUCUACACGGGGUGGGAGGGGCGAGUCGCAUGGAUGCGCUGUCGAUCGAUCGAUCGAUG
modifications: 2'-deoxy A and G, 2'-OMe C and U (dRmY)
Turning to B3, in data set [6], the Kd was 210 nM.

In data set [5], GGGCACUCAGCCACCUUGGGCUUAAUACCUAUCGGAUGUGCCC (ssRNA, 2'-F C,U) [ARC1634 minimer] displayed an IC50 of 26 nM.

In the case of GGGCACUCAGCCACAGGUGGCUUAAUACUGUAAAGACGUGCCC (ssRNA, 2'-F C,U) [ARC1739 (ARC1628 minimer)], the IC50 in data set [5] was 18 nM.

B4: ARC1628 (ssRNA)
RNA: GGAGCGCACUCAGCCACAGGUGGCUUAAUACUGUAAAGACGUGCGCGCAGAGGGAUUUUCGACCUCUCUGCUAGC
modifications: 2'-F all C and U (rRfY)
Turning to B4, the Kd in data set [1] came to 2 nM; in data set [2] it was 161 nM; in data set [3], 6 nM; in data set [4], 52 nM.

B5: ARC1628 (ssRNA)
RNA: B4 RNA
modifications: 2'-F C,U
With B5, the IC50 in data set [5] came to 37 nM.

B6: dRmY clone SEQ 93 (mixed)
RNA: GGGAGAGGAGAGAACGUUCUACGUAACGGGGUGGGAGGGGCGAACAACUUGACGCUGUCGAUCGAUCGAUCGAUG
modifications: 2'-deoxy A and G, 2'-OMe C and U (dRmY)
Molecule B6 had a Kd in data set [6] of 186 nM.

B7: ARC1630 (ssRNA)
RNA: GGAGCGCACUCAGCCACUCUACUCGAUAUAGUUUAUCGAGCCGGUGGUAGAUUAUGAUUUCGACCUCUCUGCUAGC
modifications: 2'-F all C and U (rRfY)
Turning to B7, the Kd in data set [1] was found to be 14 nM; in data set [2], 239 nM; in data set [3], 18 nM; in data set [4], 65 nM.

In data set [5], GGGCACUCAGCCACAGCUCGGUGGCUUAAUAUCUAUGUGAACGUGCCC (ssRNA, 2'-F C,U) [ARC1633 minimer] registered an IC50 of 7 nM.

B8: ARC1631 (ssRNA)
RNA: GGAGCGCACUCAGCCACGCCUACAAUUCACUGUGAUAUAUCGAAUUAUAGCCCUGGUUUCGACCUCUCUGCUAGC
modifications: 2'-F all C and U (rRfY)
Consider B8, for which the Kd in data set [1] amounted to 33 nM; in data set [2] it was 69 nM; in data set [3], 72 nM; in data set [4], 39 nM.

B9: dRmY clone SEQ 95 (mixed)
RNA: GGGAGAGGAGAGAACGUUCUACGGGCUACGGGGAUGGAGGGUGGGUCCCAGACGCUGUCGAUCGAUCGAUCGAUG
modifications: 2'-deoxy A and G, 2'-OMe C and U (dRmY)
B9 registered a Kd in data set [6] of 433 nM.

B10: ARC1634 (ssRNA)
RNA: GGAGCGCACUCAGCCACCUUGGGCUUAAUACCUAUCGGAUGUGCGCCUAGCACGGAAUUUCGACCUCUCUGCUAGC
modifications: 2'-F all C and U (rRfY)
With B10, the Kd stood at 3 nM in data set [1], 63 nM in data set [2], 29 nM in data set [3] and 39 nM in data set [4].

B11: ARC1634 (ssRNA)
RNA: B10 RNA
modifications: 2'-F C,U
Regarding B11, in data set [5], inhibition was half-maximal at 9 nM (IC50).

B12: ARC1629 (ssRNA)
RNA: GGAGCGCACUCAGCCACCGUAAUUCACAAGGUCCCUGAGUGCAGGGUUGUAUGUUUGUUUCGACCUCUCUGCUAGC
modifications: 2'-F all C and U (rRfY)
Consider B12, for which the Kd in data set [1] was determined as 34 nM; in data set [2] it was 75 nM; in data set [3] it was 103 nM; in data set [4], 31 nM.

B13: ARC1633 (ssRNA)
RNA: GGAGCGCACUCAGCCACAGCUCGGUGGCUUAAUAUCUAUGUGAACGUGCGCAACAGCUUUCGACCUCUCUGCUAGC
modifications: 2'-F all C and U (rRfY)
As to B13, the Kd stood at 17 nM in data set [1], 195 nM in data set [2], 44 nM in data set [3] and 79 nM in data set [4].

B14: ARC1633 (ssRNA)
RNA: B13 RNA
modifications: 2'-F C,U
On to B14, for which inhibition in data set [5] was half-maximal at 31 nM (IC50).
